In patent publication US12221463B2, “Method of promoting wound healing by inhibiting CCR3” (The Board of Regents of the University of Oklahoma, priority 2020, dated 2025):

T1: CCR3 (Homo sapiens, UniProt P51677)
T1 sequence (P51677 1-355): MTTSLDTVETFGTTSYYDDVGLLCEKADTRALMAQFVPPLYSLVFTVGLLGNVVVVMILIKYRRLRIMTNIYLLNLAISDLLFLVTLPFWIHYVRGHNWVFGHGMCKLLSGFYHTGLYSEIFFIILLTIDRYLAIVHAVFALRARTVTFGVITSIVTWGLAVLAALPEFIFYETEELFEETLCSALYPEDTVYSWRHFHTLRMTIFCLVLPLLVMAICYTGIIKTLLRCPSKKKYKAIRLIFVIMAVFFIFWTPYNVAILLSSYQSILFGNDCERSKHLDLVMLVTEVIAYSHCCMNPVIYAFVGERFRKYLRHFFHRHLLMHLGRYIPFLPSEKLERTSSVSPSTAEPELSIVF

B1: CCL26: CCR3-specific ligand Chemokine (C-C motif) ligand 26 (eotaxin-3), Biolegend (protein)
chain: TRGSDISKTCCFQYSHKPLPWTWVRSYEFTSNSCSQRAVIFTTKRGKKVCTHPRKKWVQKYISLLKTPKQL
B2: CCL24: CCR3-specific ligand Chemokine (C-C motif) ligand 24 (eotaxin-2), Biolegend (protein)
chain: VVIPSPCCMFFVSKRIPENRVVSYQLSSRSTCLKAGVIFTTKKGQQFCGDPKQEWVQRYMKNLDAKQKKASPRARAVA

What was measured:
CCR3 = target: T1, CCR3; conditions: CCR3 agonism; Buskermolen et al. 2017; cited from earlier work
HEKn [1] = experiment: Cell exclusion zone assay (in vitro wound closure / migration); type: cell-based, human; conditions: 16 hours
Protocol: HEKn were seeded (2.0×10^4 per well) around the barrier of a collagen I coated Oris Cell Migration Assay 96-well plate (Platypus, West Lebanon, NH). Cells were incubated overnight to allow for cell attachment. After incubation, the circular barriers were removed (except for reference wells), and the cells were treated with either anti-CCR3 (R&D Systems, Minneapolis, MN) (2 ug/mL), IgG control (R&D Systems, Minneapolis, MN; 2 μg/mL), CCL24 (Biolegend, […], CA), CCL26 (Biolegend, San Jose, CA), or IGF (ThermoFisher, Waltham, MA; 10 ng/mL) for 16 hours. At the end of the experiment, Calcein-AM (Life Technologies, Carlsbad, CA) (2 μM) was added prior to obtaining images with a Nikon TE2000-E inverted epi-fluorescence microscope (2× objective). ImageJ (NIH) was utilized to analyze the images.

HEKn [2] = experiment: Proliferation assay (PrestoBlue); type: cell-based, human; conditions: 16 hours
Protocol: Cells were plated on a collagen I coated 96-well plate (Corning, New York, NY) at a density of 4×10^3 cells per well, and then allowed to attach overnight. The next day, cells were treated with CCL24 (Biolegend, San Diego, CA), CCL26 (Biolegend, San Diego, CA), or IGF (ThermoFisher, Waltham, MA) for 16 hours. To assess viability, PrestoBlue (Life Technologies, Carlsbad, CA) was added according to manufacturer's protocol, and results were obtained on a microplate reader (BioTek, Winooski, VT).

keratinocytes = conditions: Kroeze et al. 2012, type IV collagen; cited from earlier work

Molecule | oral wound healing (CCR3) | keratinocyte migration (HEKn [1]) | keratinocyte proliferation (HEKn [2]; 20 ng/mL) | keratinocyte proliferation (HEKn [2]; 50 ng/mL) | keratinocyte proliferation (HEKn [2]; 100 ng/mL) | keratinocyte proliferation (keratinocytes)
CCL28: chemokine used for CCR3 agonism in cited oral wound healing study | promote | – | – | – | – | –
B1 | – | did not significantly alter | significantly reduced | significantly reduced | significantly reduced | –
B2 | – | did not significantly alter | significantly reduced | significantly reduced | significantly reduced | promoted
